Assay [1] deals with T1, human PD-L1 on CHO-K1 cells (human, UniProt Q9NZQ7 19-290).
T1 construct: whole, on cells; also called CHO-K1/hPDL1; CHO-K1/hPD-L1
The experiment in a line: FACS, CHO-K1/hPD-L1 cells. For orientation: In flow cytometry, cells or beads pass a laser one at a time.

The target of assay [2] is T2, human 4-1BB on CHO-K1 cells (human, UniProt Q07011 24-255).
T2 construct: whole, on cells; also called CHO-K1/hu 4-1BB; CHO-K1/hu4-1BB
The assay is described as follows: FACS, CHO-K1/hu4-1BB cells. As to the method:
The binding abilities of the antibody molecules to a CHO-K1 cell strain highly expressing human 4-1BB (CHO-K1/hu4-1BB, GenScript, M00538) and a CHO-K1 cell strain highly expressing cynomolgus monkey 4-1BB (CHO-K1/cyno4-1BB, GenScript, M00569) were determined by flow cytometry FACS. Specifically, the cells were digested and resuspended in a complete medium, and the cell density was adjusted to 2×10⁶ cells/mL. Then, the cells were seeded in a 96-well V-bottom plate (Corning, #3894) at 100 μL/well (2×10⁵ cells/well) and centrifuged at 4° C. for 5 min, and the supernatant was discarded. Then, the serially diluted antibody molecules were added to the 96-well plate at 100 μL/well, and the mixtures were well mixed. The antibody molecules might serially diluted 3-fold from the highest final concentration 200 nM to obtain a total of 12 concentrations. hIgG1 iso (CrownBio, #C0001) was used as an isotype control. The cells were incubated at 4° C. for 1 h away from light. Then, the cells in each well were rinsed twice with 100 μL of pre-cooled FACS buffer (PBS buffer containing 0.5% BSA) and centrifuged at 500 g at 4° C. for 5 min, and then the supernatant was discarded. […] Then, the cells in each well were then rinsed twice with 200 μL of pre-cooled FACS buffer and centrifuged at 500 g at 4° C. for 5 min, and then the supernatant was discarded. Finally, a pre-cooled FACS buffer was added at 200 μL/well to resuspend the cells. The fluorescence signal values were read using a BD FACS CANTOII flow cytometer.

T2 sequence (Q07011 24-255): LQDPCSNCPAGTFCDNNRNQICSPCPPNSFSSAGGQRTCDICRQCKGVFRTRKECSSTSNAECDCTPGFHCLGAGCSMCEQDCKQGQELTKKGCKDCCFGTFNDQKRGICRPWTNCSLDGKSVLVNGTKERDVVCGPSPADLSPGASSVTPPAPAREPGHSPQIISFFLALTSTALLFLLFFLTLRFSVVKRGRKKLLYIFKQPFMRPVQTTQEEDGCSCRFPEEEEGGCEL
T1 sequence (Q9NZQ7 19-290): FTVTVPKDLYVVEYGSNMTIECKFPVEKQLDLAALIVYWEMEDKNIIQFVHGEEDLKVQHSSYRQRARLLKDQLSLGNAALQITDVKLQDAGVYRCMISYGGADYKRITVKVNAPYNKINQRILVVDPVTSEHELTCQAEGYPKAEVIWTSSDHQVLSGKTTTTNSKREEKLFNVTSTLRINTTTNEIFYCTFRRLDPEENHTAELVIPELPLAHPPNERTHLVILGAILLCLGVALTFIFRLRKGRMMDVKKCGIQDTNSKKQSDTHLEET

B1: PR007136 (bispecific antibody, human IgG1, kappa)
light: DIQMTQSPSTLSASVGDRVTVTCRASQSIYIWLAWYQQKPGKAPNLLIYKASSLETGVPSRFSGSGSGTEFTLTISSLQPDDFATYYCQQYYGSSRTFGQGTKVEIKRTVAAPSVFIFPPSDEQLKSGTASVVCLLNNFYPREAKVQWKVDNALQSGNSQESVTEQDSKDSTYSLSSTLTLSKADYEKHKVYACEVTHQGLSSPVTKSFNRGEC
heavy: EVQLVESGGGLVQPGGSLRLSCAASGFTFSSYWMSWVRQAPGKGLEWVANIKQEGSEKYYVDSVKGRFTISRDNAKNSLYLQMNSLRAEDTAVYYCARDRAVAGAFDIWGQGTMVTVSSASTKGPSVFPLAPSSKSTSGGTAALGCLVKDYFPEPVTVSWNSGALTSGVHTFPAVLQSSGLYSLSSVVTVPSSSLGTQTYICNVNHKPSNTKVDKKVEPKSCDKTHTCPPCPAPEAAGAPSVFLFPPKPKDTLMISRTPEVTCVVVDVSHEDPEVKFNWYVDGVEVHNAKTKPREEQYNSTYRVVSVLTVLHQDWLNGKEYKCKVSNKALPAPIEKTISKAKGQPREPQVYTLPPSREEMTKNQVSLTCLVKGFYPSDIAVEWESNGQPENNYKTTPPVLDSDGSFFLYSKLTVDKSRWQQGNVFSCSVMHEALHNHYTQKSLSLSPGGGSGGSEVQLVESGGGLVKPGGSLRLSCAASGFTFSDYYMSWFRQAPGKGLEWVSYISSSGSTQDYADSVKGRFTISRDNAKNSLYLQMNSLRAEDTAVYYCAREREPVAGTLDFDNWGQGTPVTVSS
notes: PD-L1x4-1BB IgG-VH: PR000265 + VH of PR007289 at heavy-chain C-terminus
For B1, the binding result in assay [1] and in assay [2] was “binds” each time.

B2: PR007139 (bispecific antibody, human IgG1, kappa)
light: DIQMTQSPSTLSASVGDRVTVTCRASQSIYIWLAWYQQKPGKAPNLLIYKASSLETGVPSRFSGSGSGTEFTLTISSLQPDDFATYYCQQYYGSSRTFGQGTKVEIKRTVAAPSVFIFPPSDEQLKSGTASVVCLLNNFYPREAKVQWKVDNALQSGNSQESVTEQDSKDSTYSLSSTLTLSKADYEKHKVYACEVTHQGLSSPVTKSFNRGEC
heavy: EVQLVESGGGLVQPGGSLRLSCAASGFTFSSYWMSWVRQAPGKGLEWVANIKQEGSEKYYVDSVKGRFTISRDNAKNSLYLQMNSLRAEDTAVYYCARDRAVAGAFDIWGQGTMVTVSSASTKGPSVFPLAPSSKSTSGGTAALGCLVKDYFPEPVTVSWNSGALTSGVHTFPAVLQSSGLYSLSSVVTVPSSSLGTQTYICNVNHKPSNTKVDKKVEPKSCDKTHTCPPCPAPEAAGAPSVFLFPPKPKDTLMISRTPEVTCVVVDVSHEDPEVKFNWYVDGVEVHNAKTKPREEQYNSTYRVVSVLTVLHQDWLNGKEYKCKVSNKALPAPIEKTISKAKGQPREPQVYTLPPSREEMTKNQVSLTCLVKGFYPSDIAVEWESNGQPENNYKTTPPVLDSDGSFFLYSKLTVDKSRWQQGNVFSCSVMHEALHNHYTQKSLSLSPGGGSGGSEVQLVESGGGLVKPGGSLRLSCAASGFTFSDYYMSWIRQAPGKGLEWVSYISSSGSTIDYADSVKGRFTISRDNAKNSLYLQMNSLRAEDTAVYYCAREREEVAGTLDYDNWGQGTLVTVSS
notes: PD-L1x4-1BB IgG-VH: PR000265 + VH of PR007292 at heavy-chain C-terminus
With B2, the binding result in assay [1] and in assay [2] was “binds” throughout.

B3: PR007137 (bispecific antibody, human IgG1, kappa)
light: DIQMTQSPSTLSASVGDRVTVTCRASQSIYIWLAWYQQKPGKAPNLLIYKASSLETGVPSRFSGSGSGTEFTLTISSLQPDDFATYYCQQYYGSSRTFGQGTKVEIKRTVAAPSVFIFPPSDEQLKSGTASVVCLLNNFYPREAKVQWKVDNALQSGNSQESVTEQDSKDSTYSLSSTLTLSKADYEKHKVYACEVTHQGLSSPVTKSFNRGEC
heavy: EVQLVESGGGLVQPGGSLRLSCAASGFTFSSYWMSWVRQAPGKGLEWVANIKQEGSEKYYVDSVKGRFTISRDNAKNSLYLQMNSLRAEDTAVYYCARDRAVAGAFDIWGQGTMVTVSSASTKGPSVFPLAPSSKSTSGGTAALGCLVKDYFPEPVTVSWNSGALTSGVHTFPAVLQSSGLYSLSSVVTVPSSSLGTQTYICNVNHKPSNTKVDKKVEPKSCDKTHTCPPCPAPEAAGAPSVFLFPPKPKDTLMISRTPEVTCVVVDVSHEDPEVKFNWYVDGVEVHNAKTKPREEQYNSTYRVVSVLTVLHQDWLNGKEYKCKVSNKALPAPIEKTISKAKGQPREPQVYTLPPSREEMTKNQVSLTCLVKGFYPSDIAVEWESNGQPENNYKTTPPVLDSDGSFFLYSKLTVDKSRWQQGNVFSCSVMHEALHNHYTQKSLSLSPGGGSGGSEVQLVESGGGVVQPGRSLRLSCAASGFTFSDYYMSWFRQAPGKGLEWVSYISSSGTTIDYADSVKGRFTISRDNAKNSLYLQMNSLRAEDTAVYYCAREREEVAGTLDFDYWGQGTPVTVSS
notes: PD-L1x4-1BB IgG-VH: PR000265 + VH of PR007290 at heavy-chain C-terminus
Consider B3, for which the binding result in assay [1] and in assay [2] was “binds” in each case.

B4: PR007141 (bispecific antibody, human IgG1, kappa)
light: DIQMTQSPSTLSASVGDRVTVTCRASQSIYIWLAWYQQKPGKAPNLLIYKASSLETGVPSRFSGSGSGTEFTLTISSLQPDDFATYYCQQYYGSSRTFGQGTKVEIKRTVAAPSVFIFPPSDEQLKSGTASVVCLLNNFYPREAKVQWKVDNALQSGNSQESVTEQDSKDSTYSLSSTLTLSKADYEKHKVYACEVTHQGLSSPVTKSFNRGEC
heavy: EVQLVESGGGLVQPGGSLRLSCAASGFTFSSYWMSWVRQAPGKGLEWVANIKQEGSEKYYVDSVKGRFTISRDNAKNSLYLQMNSLRAEDTAVYYCARDRAVAGAFDIWGQGTMVTVSSASTKGPSVFPLAPSSKSTSGGTAALGCLVKDYFPEPVTVSWNSGALTSGVHTFPAVLQSSGLYSLSSVVTVPSSSLGTQTYICNVNHKPSNTKVDKKVEPKSCDKTHTCPPCPAPEAAGAPSVFLFPPKPKDTLMISRTPEVTCVVVDVSHEDPEVKFNWYVDGVEVHNAKTKPREEQYNSTYRVVSVLTVLHQDWLNGKEYKCKVSNKALPAPIEKTISKAKGQPREPQVYTLPPSREEMTKNQVSLTCLVKGFYPSDIAVEWESNGQPENNYKTTPPVLDSDGSFFLYSKLTVDKSRWQQGNVFSCSVMHEALHNHYTQKSLSLSPGGGSGGSEVQLVESGGGLVKPGGSLRLSCVASGFTFSDYYMSWFRQAPGKGLEWVSYISGSGTTIDYADSVKGRFTISRDNAKNSLYLQMNSLRAEDTAVYYCAREREPVAGTLDFDNWGQGTLVTVSS
notes: PD-L1x4-1BB IgG-VH: PR000265 + VH of PR007294 at heavy-chain C-terminus
B4: the binding result in assay [1] and in assay [2] was “binds” each time.

B5: PR007133 (bispecific antibody, human IgG1, kappa)
light: DIQMTQSPSTLSASVGDRVTVTCRASQSIYIWLAWYQQKPGKAPNLLIYKASSLETGVPSRFSGSGSGTEFTLTISSLQPDDFATYYCQQYYGSSRTFGQGTKVEIKRTVAAPSVFIFPPSDEQLKSGTASVVCLLNNFYPREAKVQWKVDNALQSGNSQESVTEQDSKDSTYSLSSTLTLSKADYEKHKVYACEVTHQGLSSPVTKSFNRGEC
heavy: EVQLVESGGGLVQPGGSLRLSCAASGFTFSSYWMSWVRQAPGKGLEWVANIKQEGSEKYYVDSVKGRFTISRDNAKNSLYLQMNSLRAEDTAVYYCARDRAVAGAFDIWGQGTMVTVSSASTKGPSVFPLAPSSKSTSGGTAALGCLVKDYFPEPVTVSWNSGALTSGVHTFPAVLQSSGLYSLSSVVTVPSSSLGTQTYICNVNHKPSNTKVDKKVEPKSCDKTHTCPPCPAPEAAGAPSVFLFPPKPKDTLMISRTPEVTCVVVDVSHEDPEVKFNWYVDGVEVHNAKTKPREEQYNSTYRVVSVLTVLHQDWLNGKEYKCKVSNKALPAPIEKTISKAKGQPREPQVYTLPPSREEMTKNQVSLTCLVKGFYPSDIAVEWESNGQPENNYKTTPPVLDSDGSFFLYSKLTVDKSRWQQGNVFSCSVMHEALHNHYTQKSLSLSPGGGSGGSEVQLEESGGGLVKPGGSLRLSCAASGFTFSDYYMSWFRQAPGKGLEWVSYISSSGSITDYADAVKGRFNISRDNAKNSLYLQMNSLRAEDTAVYYCAREREAVAGTLDFDNWGQGTLVTVSS
notes: PD-L1x4-1BB IgG-VH: PR000265 + VH of PR007287 at heavy-chain C-terminus
Turning to B5, the binding result in assay [1] and in assay [2] was “binds” throughout.

B6: PR007135 (bispecific antibody, human IgG1, kappa)
light: DIQMTQSPSTLSASVGDRVTVTCRASQSIYIWLAWYQQKPGKAPNLLIYKASSLETGVPSRFSGSGSGTEFTLTISSLQPDDFATYYCQQYYGSSRTFGQGTKVEIKRTVAAPSVFIFPPSDEQLKSGTASVVCLLNNFYPREAKVQWKVDNALQSGNSQESVTEQDSKDSTYSLSSTLTLSKADYEKHKVYACEVTHQGLSSPVTKSFNRGEC
heavy: EVQLVESGGGLVQPGGSLRLSCAASGFTFSSYWMSWVRQAPGKGLEWVANIKQEGSEKYYVDSVKGRFTISRDNAKNSLYLQMNSLRAEDTAVYYCARDRAVAGAFDIWGQGTMVTVSSASTKGPSVFPLAPSSKSTSGGTAALGCLVKDYFPEPVTVSWNSGALTSGVHTFPAVLQSSGLYSLSSVVTVPSSSLGTQTYICNVNHKPSNTKVDKKVEPKSCDKTHTCPPCPAPEAAGAPSVFLFPPKPKDTLMISRTPEVTCVVVDVSHEDPEVKFNWYVDGVEVHNAKTKPREEQYNSTYRVVSVLTVLHQDWLNGKEYKCKVSNKALPAPIEKTISKAKGQPREPQVYTLPPSREEMTKNQVSLTCLVKGFYPSDIAVEWESNGQPENNYKTTPPVLDSDGSFFLYSKLTVDKSRWQQGNVFSCSVMHEALHNHYTQKSLSLSPGGGSGGSEVQLVESGGGLVKPGGSLRLSCAASGFTFSDYYMSWFRQAPGKGLEWVSYISGSGSIIDYADSVKGRFTISRDNAKNSLYLQMNSLRAEDTAVYYCSREREAVAGTLDFDYWGQGTLVTVSS
notes: PD-L1x4-1BB IgG-VH: PR000265 + VH of PR007288 at heavy-chain C-terminus
In the case of B6, the binding result in assay [1] and in assay [2] was “binds” each time.

(Values after patent US20230242658A1 (published 2023).)
